The results in this text go back to US20100047237A1.

Experiment [1] addresses ALys amyloid fibrils extracted from human amyloidotic tissue (human) (UniProt P61626). The experiment can be described thus: 125I-SAP binding to fibrils; ALys fibrils at 0.02 A280-A320 units/ml; mean of 2 replicates.
Experiment [2] has the same target. The experiment can be described thus: 125I-SAP binding to fibrils; ALys fibrils at 0.2 A280-A320 units/ml; mean of 2 replicates.
The target is the same in experiment [3]. Briefly: 125I-SAP binding to fibrils; ALys fibrils at 0.002 A280-A320 units/ml; mean of 2 replicates.
Experiment [4] has the same target. Briefly: 125I-SAP binding to fibrils; ALys fibrils at 0.05 A280-A320 units/ml; mean of 2 replicates.

“human serum amyloid P component (SAP), 125I-labelled (from UniProt P02743 20-223)”: the % ^125I-SAP counts bound in experiment [1] came out at 45%; in experiment [2] it was 79%; in experiment [3], 7%; in experiment [4], 72%.
